Test results: patent US20130280758A1 (Regeneron, published 2013)

Molecular target: T1, rat Tie-2 (rTie-2), as used in BIAcore analysis (rat, UniProt A0ABK0L6J5 19-740)
T1 construct: It may have been rTie-2-Fc
Test: BIAcore

B1: FD1-Fc-FD1 (Fc fusion, human)
chain (part 1 of 2): FRDCADVYQAGFNKSGIYTIYINNMPEPKKVFCNMDVNGGGWTVIQHREDGSLDFQRGWKEYKMGFGNPSGEYWLGNEFIFAITSQRQYMLRIELMDWEGNRAYSQYDRFHIGNEKQNYRLYLKGHTGTAGKQSSLILHGADFSTKDADNDNCMCKCALMLTGGWWFDACGPSNLNGMFYTAGQNHGKLNGIKWHYFKGPSYSLRSTTMMIRPLDF
chain (part 2 of 2): B1 chain (part 1 of 2)
notes: domain: fibrinogen domain of Ang1; also called BA1; not shown: Fc
Kd: 2 nM
